The values below come from patent US20250163181A1 (SAINT LOUIS UNIVERSITY, published 2025).

The target of test [1] is T1, kringle-2 of human prothrombin (amino acids 156-271) (human, UniProt P00734 199-314).
T1 construct: range 156-271; Numbers count on the mature protein
The test can be described thus: ELISA, immobilised antigen, 5B10 titrated, OD at 450 nm [panel B].

The target of test [2] is T2, prothrombin variant S91A/Y93A (human, UniProt P00734 44-622, S91A; Y93A).
T2 construct: range 1-579; Recombinant, expressed in Expi293 cells in the presence of vitamin K. Positions 91 and 93 count on the mature protein; also called ProTS91A/Y93A
The test can be described thus: ELISA, antigen immobilised, Hill fit.

In test [3] the target is T3, human prothrombin wild-type (human, UniProt P00734 44-622).
T3 construct: range 1-579; Residue numbers count on the mature protein, not on the precursor entry; In some runs 200 uM argatroban was added to force the open form; also called coagulation factor II; PT
The test can be described thus: ELISA, antigen immobilised, Hill fit. (In general: An ELISA detects its analyte on a solid surface through an enzyme-linked reagent.)

Test [4] has as its target T4, kringle-1 of human prothrombin (amino acids 44-155) (human, UniProt P00734 87-198).
T4 construct: Numbers count on the mature protein
The test can be described thus: ELISA, antigen immobilised, Hill fit.

The target of test [5] is T2, prothrombin variant S91A/Y93A. The experiment in a line: SPR, calculated from Kd; SPR, first set, Tris pH 7.4; ΔG calculated from Kd.
For test [6] the target is unchanged. The test can be described thus: SPR, POmAb immobilised, second set, HEPES buffer, 25 C; SPR, second set, 20 mM HEPES pH 7.4, 25 C: weak binding with fast dissociation. (In general: In SPR one partner is held on a chip, and binding of the other changes the refractive index at the surface.)
Test [7] addresses T3, human prothrombin wild-type. The experiment in a line: SPR, calculated from Kd; prothrombin with 200 µM argatroban.
Test [8] has as its target T2, prothrombin variant S91A/Y93A. The experiment in a line: SPR, POmAb immobilised.
In a further test the target is T5, β2-glycoprotein I (UniProt P02749 20-345).
T5 construct: also called B2-glycoprotein I; β2GPI
T5 sequence (looked up): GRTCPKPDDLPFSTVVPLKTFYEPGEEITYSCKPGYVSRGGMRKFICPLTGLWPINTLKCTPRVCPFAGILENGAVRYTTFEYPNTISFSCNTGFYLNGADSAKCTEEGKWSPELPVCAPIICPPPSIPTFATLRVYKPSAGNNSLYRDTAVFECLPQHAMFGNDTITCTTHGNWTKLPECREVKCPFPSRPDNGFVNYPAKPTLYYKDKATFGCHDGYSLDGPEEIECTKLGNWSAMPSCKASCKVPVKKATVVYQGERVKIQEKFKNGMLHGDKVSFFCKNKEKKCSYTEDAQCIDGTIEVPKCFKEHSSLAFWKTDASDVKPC
The experiment in a line: ELISA, antigen coated on the plate, POmAb detected with anti-mouse IgG (gamma)-HRP and TMB, OD at 450 nm [panel C].

For test [9], the target named is tissue plasminogen activator (UniProt P00750 36-562). The description is as above.
tissue plasminogen activator, sequence (P00750 36-562): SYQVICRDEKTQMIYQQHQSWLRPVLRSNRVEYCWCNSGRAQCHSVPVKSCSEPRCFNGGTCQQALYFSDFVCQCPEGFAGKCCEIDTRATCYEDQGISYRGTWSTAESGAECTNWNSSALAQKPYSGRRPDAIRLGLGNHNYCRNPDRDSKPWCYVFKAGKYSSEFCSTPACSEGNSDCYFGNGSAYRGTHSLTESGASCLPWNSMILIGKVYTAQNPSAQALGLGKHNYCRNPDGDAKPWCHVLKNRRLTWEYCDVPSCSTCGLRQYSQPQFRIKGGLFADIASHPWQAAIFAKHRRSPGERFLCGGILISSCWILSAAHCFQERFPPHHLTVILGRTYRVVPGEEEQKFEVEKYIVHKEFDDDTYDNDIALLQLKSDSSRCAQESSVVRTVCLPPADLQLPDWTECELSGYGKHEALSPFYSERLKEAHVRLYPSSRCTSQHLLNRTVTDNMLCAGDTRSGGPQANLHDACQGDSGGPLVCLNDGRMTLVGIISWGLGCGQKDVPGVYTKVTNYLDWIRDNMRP
The target in a further test is T6, factor XII (UniProt P00748 20-615).
T6 construct: also called FXII
T6 sequence (looked up): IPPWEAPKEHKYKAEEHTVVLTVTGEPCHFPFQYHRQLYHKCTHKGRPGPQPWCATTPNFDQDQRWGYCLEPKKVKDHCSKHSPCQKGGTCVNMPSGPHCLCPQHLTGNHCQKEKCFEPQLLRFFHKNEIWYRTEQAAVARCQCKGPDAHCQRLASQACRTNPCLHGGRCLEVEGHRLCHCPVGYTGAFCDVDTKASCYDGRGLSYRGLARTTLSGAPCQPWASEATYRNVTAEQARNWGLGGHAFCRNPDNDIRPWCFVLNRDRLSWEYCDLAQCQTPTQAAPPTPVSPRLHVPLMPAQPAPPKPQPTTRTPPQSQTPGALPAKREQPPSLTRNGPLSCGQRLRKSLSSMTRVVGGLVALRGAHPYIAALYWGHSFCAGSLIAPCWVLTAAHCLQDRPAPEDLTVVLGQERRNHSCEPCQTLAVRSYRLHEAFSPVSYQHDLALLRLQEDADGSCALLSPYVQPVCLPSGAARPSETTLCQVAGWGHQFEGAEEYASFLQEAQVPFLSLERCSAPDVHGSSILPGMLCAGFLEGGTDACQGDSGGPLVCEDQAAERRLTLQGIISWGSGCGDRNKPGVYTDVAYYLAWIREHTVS
The description is as above.

Test [10] addresses T1, kringle-2 of human prothrombin (amino …). The test is described as above.
Another test deals with plasminogen (UniProt P00747 20-810, limits assumed). The description is as above.
plasminogen, sequence (P00747 20-810 limits assumed): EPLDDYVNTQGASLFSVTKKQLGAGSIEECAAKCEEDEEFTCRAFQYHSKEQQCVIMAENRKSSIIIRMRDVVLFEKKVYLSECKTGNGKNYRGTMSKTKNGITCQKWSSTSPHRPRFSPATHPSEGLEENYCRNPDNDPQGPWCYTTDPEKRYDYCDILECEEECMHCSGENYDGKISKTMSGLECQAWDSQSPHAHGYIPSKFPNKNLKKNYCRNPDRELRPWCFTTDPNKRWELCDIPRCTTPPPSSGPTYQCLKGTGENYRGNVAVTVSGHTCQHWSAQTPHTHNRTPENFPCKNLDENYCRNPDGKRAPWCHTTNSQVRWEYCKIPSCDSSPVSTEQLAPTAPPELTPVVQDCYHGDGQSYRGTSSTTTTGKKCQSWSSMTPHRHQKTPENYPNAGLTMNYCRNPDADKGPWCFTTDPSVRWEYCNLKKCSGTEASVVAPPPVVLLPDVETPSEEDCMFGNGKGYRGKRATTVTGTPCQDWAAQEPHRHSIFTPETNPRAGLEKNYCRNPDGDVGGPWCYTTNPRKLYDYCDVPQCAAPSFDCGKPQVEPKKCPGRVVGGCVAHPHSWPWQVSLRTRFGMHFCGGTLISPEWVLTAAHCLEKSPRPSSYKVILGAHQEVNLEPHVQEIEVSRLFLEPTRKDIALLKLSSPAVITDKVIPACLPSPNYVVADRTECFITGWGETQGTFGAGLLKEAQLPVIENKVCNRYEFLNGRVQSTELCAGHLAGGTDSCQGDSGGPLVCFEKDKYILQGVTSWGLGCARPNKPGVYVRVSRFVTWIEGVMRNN
The target of test [11] is T3, human prothrombin wild-type. The experiment in a line: SPR, POmAb immobilised; prothrombin with 200 µM argatroban (open form).
The target is the same in test [12]. The test can be described thus: SPR, calculated from Kd.
Test [13] addresses T4, kringle-1 of human prothrombin (amino …). The test can be described thus: SPR, calculated from Kd.
Test [14] addresses T3, human prothrombin wild-type. The test can be described thus: SPR, POmAb immobilised on CM5, 1:1 model, 25 C.
The target in test [15] is T4, kringle-1 of human prothrombin (amino …). The experiment in a line: SPR, POmAb immobilised on CM5, 1:1 model, 25 C.
The target in test [16] is T2, prothrombin variant S91A/Y93A. The test can be described thus: SPR, POmAb immobilised on CM5, 1:1 model, 25 C; SPR, first set, 20 mM Tris pH 7.4, 25 C: weak binding with fast dissociation.
For test [17], the target named is T3, human prothrombin wild-type. The test can be described thus: SPR, POmAb immobilised, second set; prothrombin with argatroban (open form).
Test [18] shares this target. The experiment in a line: SPR, second set, calculated from Kd; prothrombin with argatroban.
In test [19] the target is T2, prothrombin variant S91A/Y93A. The experiment in a line: SPR, POmAb immobilised, second set, HEPES buffer, 25 C.
Test [20] deals with T3, human prothrombin wild-type. The test is described as above.
In test [21] the target is T4, kringle-1 of human prothrombin (amino …). Described as above.
Test [22] has as its target T2, prothrombin variant S91A/Y93A. The test can be described thus: SPR, second set, calculated from Kd.
Test [23] has as its target T3, human prothrombin wild-type. The test can be described thus: SPR, second set, calculated from Kd.
The target in test [24] is T4, kringle-1 of human prothrombin (amino …). The test can be described thus: SPR, second set, calculated from Kd.

B1: 5B10 monoclonal antibody (antibody, V domains shown)
VH: QIQLVQSGPELKKPGETVKISCKASGYTFTNYGMNWVKQAPGKGLKWMGWINTYTGEPTYADDFKGRFAFSLETSASTAYLQINNLKNEDMATYFCARGGYYYGNNYEAYWGQGTLVTVSA
VL: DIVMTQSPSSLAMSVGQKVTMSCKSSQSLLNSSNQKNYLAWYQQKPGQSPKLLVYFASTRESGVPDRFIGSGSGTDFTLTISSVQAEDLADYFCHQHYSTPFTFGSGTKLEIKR
notes: also called clone 5B10
Usually EC50 stands for the concentration giving half of the maximal effect. As for B1, the binding result in test [1] is “no binding”. Further, the EC50 in test [2] was determined as 0.038 mg/L; in test [3], 0.031 mg/L; in test [4], 0.038 mg/L.

B2: POmAb (Prothrombin Open monoclonal Antibody) (antibody, mouse IgG1, kappa, V domains shown)
VH: EVHLVESGGGLVKPGGSLKLSCAASGFTFSSYYMYWVRQTPEKRLEWVATISNGGIYTYYLDSVRGRFTISRDNAKNILYLQMSGLSSADSAIYYCTRDGERQGAMDYWGQGTSVTVSS
VL: QIVLTQSPAIMSVSLGERVTMTCIVSSSVSSTYLHWYQQKPGSSPKLWIYSSSNLASGVPTRFSGSGSGTSHSLTISSMEAEDAAAYYCQLYRRSPLTFGAGTKLELKR
notes: also called POmAb IgG; IgG POmAb
Usually koff stands for the first-order rate constant of dissociation. Higher therefore signals fast dissociation. One may read the kon as the second-order rate constant of association. A low value points to slow association. Usually Kd stands for the free concentration of one partner at which half of the binding sites on the other are occupied at equilibrium, for simple one-to-one binding. Consider B2, for which the ΔG in [5] is -28 kJ/mol; in [7] it was -48.5 kJ/mol; in [12], -49 kJ/mol; in test [13] it was -48.1 kJ/mol; in [18], -49 kJ/mol; in [22] it was -34.3 kJ/mol. Besides, the ΔG in test [23] is -43.9 kJ/mol; in test [24], -47.3 kJ/mol. The koff in test [6] turned out to be 0.0702 s⁻¹; in test [11], 0.00012 s⁻¹; in test [14] it was 0.00013 s⁻¹; in test [15], 0.00027 s⁻¹; in test [16], 0.29 s⁻¹; in [17], 9.49e-05 s⁻¹. For the same molecule, the results for the koff in [20] and in test [21] were 0.000122 s⁻¹ and 0.000314 s⁻¹, respectively. The kon stood at 69600 M⁻¹ s⁻¹ in test [6]; 40300 M⁻¹ s⁻¹ in test [11]; 52000 M⁻¹ s⁻¹ in [14]; 69100 M⁻¹ s⁻¹ in test [15]; 24200 M⁻¹ s⁻¹ in [16]; 36600 M⁻¹ s⁻¹ in [17]. Further, the kon in [20] worked out at 6350 M⁻¹ s⁻¹; in [21], 58900 M⁻¹ s⁻¹. In addition, the “fold change of dissociation rate against wild-type prothrombin” value in [8] is around 1000 fold. In addition, the binding result with β2-glycoprotein I is given as “no binding (tested: 50 µg/ml)”; in test [9], “no binding (tested: 50 µg/ml)”; with factor XII, “no binding (tested: 50 µg/ml)”; in test [10], “no binding”; with plasminogen it was “no binding (tested: 50 µg/ml)”. In addition, the Kd was found to be 2.98 nM in test [11]; 2.5 nM in test [14]; 3.7 nM in test [15]; 12000 nM in test [16]; 2.59 nM in test [17]; 1010 nM in [19]. The Kd in test [20] stood at 19.2 nM; in [21], 5.33 nM. For the same molecule, the EC50 amounted to 0.301 mg/L in [2], 0.013 mg/L in test [3] and 0.02 mg/L in [4].
